We go through 15 molecules from patent US20190351049A1 (Regeneron, published 2019).

In assay [1] the target is T1, MERS RBD-hFc (MERS-CoV (isolate EMC/2012)). The assay is described as follows: SPR Biacore, captured mAb, 25 C.
The target of assay [2] is T1, MERS RBD-hFc. The assay is described as follows: SPR Biacore, captured mAb, 37 C. (In SPR one partner is held on a chip, and binding of the other changes the refractive index at the surface.)
Assay [3] concerns the target T1, MERS RBD-hFc. The assay is described as follows: ELISA on coated MERS RBD-hFc, hybridoma supernatant 1:50, absorbance at 450 nm. (An ELISA detects its analyte on a solid surface through an enzyme-linked reagent.)
Assay [4] deals with T1, MERS RBD-hFc. The assay is described as follows: SPR (Biacore), hybridoma supernatant antibody captured, MERS RBD-hFc as analyte.

B1: H1H15208P (antibody, V domains shown)
VH: EVQLVESGGDLVQPGGSLRLSCTASGFTFSNYEMNWVRQAPEKGLDWVSFISSSGGAIYYADSVKGRFTISRDNAKNSLYLQMNSLRAEDSAIYFCARSDSGGNSRYWGQGTLVTVSS
VL: DIQMTQSPSSVSASVGDRVTVTCRASQDISNWLVWYQQKPGKAPKFLIYAASSLQSGVPSRFSGSGSGTDFTLTISSLQPEDFATYYCQQANSFPPTFGGGTKVEIK
For the molecule B1, in the assay with MERS RBD-hFc [1], the Kd (as a rule, the concentration at which binding is half-saturated) was determined as 0.553 nM; the koff (as a rule, the first-order rate constant of dissociation) turned out to be 0.000243 s⁻¹; the on-rate constant (kon) (in general, the rate constant with which the complex forms) came to 439000 M⁻¹ s⁻¹; the t1/2 is 48 min. Moreover, in the assay with MERS RBD-hFc [2], the dissociation constant (Kd) worked out at 1.01 nM, the off-rate (koff) was 0.000531 s⁻¹, the on-rate (kon) turned out to be 525000 M⁻¹ s⁻¹ and the t1/2 is 22 min.

B2: H1H15233P2 (antibody, V domains shown)
VH: EVQLVESGGGLVQPGGSLRLSCAASGFSFSSYGMNWVRQAPGKGLEWVSAISGRGGNTYSADSVKGRFTISRDNSKNTLFLQMNGLRAEDSAFYYCAKVGTYSSSSPFDYWGQGTLVTVSS
VL: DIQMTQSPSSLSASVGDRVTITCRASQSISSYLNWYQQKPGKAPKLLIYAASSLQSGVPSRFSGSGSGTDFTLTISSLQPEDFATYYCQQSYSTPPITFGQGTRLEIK
For the molecule B2, in the assay with MERS RBD-hFc [1], binding was characterised by a dissociation constant (Kd) of 0.229 nM, the dissociation rate constant (koff) was found to be 4.56e-05 s⁻¹, the on-rate (kon) is 199000 M⁻¹ s⁻¹ and the t1/2 was 253 min. Further, in the assay with MERS RBD-hFc [2], the Kd amounted to 0.127 nM, the koff is 4.74e-05 s⁻¹, the kon came out at 374000 M⁻¹ s⁻¹ and the t1/2 came to 244 min.

B3: H2aM15281N (antibody, V domains shown)
VH: QVQLVQSGAEVKKPGSSVKVSCKASKDTFSSYAISWVRQAPGQGLEWMGGIIPFFGTTTYEQKFQGRVTITTDESTRTAYMELSSLRSEDSAVYYCARDRPCISSAGTRYHYCVMDVWGQGTTVTVSS
VL: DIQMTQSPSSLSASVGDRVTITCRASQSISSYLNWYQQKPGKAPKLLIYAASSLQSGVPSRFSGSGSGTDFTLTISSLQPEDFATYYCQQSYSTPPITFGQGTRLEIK
In the assay with MERS RBD-hFc [1], B3 came in with a dissociation constant (Kd) of 0.39 nM, a koff of 0.000818 s⁻¹, a kon of 2.1e+06 M⁻¹ s⁻¹ and a t1/2 of 14 min. Besides, in the assay with MERS RBD-hFc [2], the Kd stood at 0.213 nM, the koff is 0.000543 s⁻¹, the kon worked out at 2.55e+06 M⁻¹ s⁻¹ and the t1/2 was determined as 21 min. For the same molecule, in the assay with MERS RBD-hFc [3], the “ELISA Binding” value is 2.54. In the assay with MERS RBD-hFc [4], binding was put at a Kd of 2.77 nM and the t½ (usually the time in which the quantity being followed falls by half) was 10.4 min.

B4: H1H15237P2 (antibody, V domains shown)
VH: EVQLVESGGGLVQPGGSLRLSCAASGFTSNSYPMSWVRQAPGKGLEWVSGISGRGGNTYYADSVKGRFTISRDNSKNTLYLQMNSLRVEDTAVYYCAETGTAFDYWGQGTLVTVSS
VL: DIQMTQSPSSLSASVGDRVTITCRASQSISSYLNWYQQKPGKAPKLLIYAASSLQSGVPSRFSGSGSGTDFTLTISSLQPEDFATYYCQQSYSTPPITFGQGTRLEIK
In the assay with MERS RBD-hFc [1], B4 returned a dissociation constant (Kd) of 0.274 nM, a koff of 0.00012 s⁻¹, a kon of 439000 M⁻¹ s⁻¹ and a t1/2 of 96 min. For the same molecule, in the assay with MERS RBD-hFc [2], the Kd was determined as 0.797 nM, the koff came to 0.000409 s⁻¹, the kon came to 514000 M⁻¹ s⁻¹ and the t1/2 is 28 min.

B5: H1H15211P (antibody, V domains shown)
VH: EVQLVESGGGLVQPGGSLRLSCVVSGFTFSNYDMSWVRQAPGRGLEWVSAIRGSGFNTYYADSVKGRFTISRDNSKNTLYLQMNSLRAEDTAVYYCAKDGSIVSMDYWGQGTLVTVSS
VL: not shown
In the assay with MERS RBD-hFc [1], B5 showed a Kd of 0.0775 nM, a koff of 8.72e-05 s⁻¹, a kon of 1.13e+06 M⁻¹ s⁻¹ and a t1/2 of 133 min. In the assay with MERS RBD-hFc [2], this molecule gave a Kd of 0.194 nM, a koff of 0.00016 s⁻¹, a kon of 827000 M⁻¹ s⁻¹ and a t1/2 of 72 min.

B6: H1H15203P (antibody, V domains shown)
VH: EVQLVESGGDLVQPGGSLRVSCAASGFTFSNYDMYWVRQAPGKGLEWVSVISGIGATTYYADSVKGRFTISRDNSKNTVFLQMNSLRAEDTAVYYCVKGGPIVATDYWGQGTLVTVSS
VL: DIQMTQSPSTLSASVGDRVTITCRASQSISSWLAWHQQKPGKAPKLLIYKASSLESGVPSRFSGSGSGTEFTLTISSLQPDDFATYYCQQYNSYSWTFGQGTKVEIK
In the assay with MERS RBD-hFc [1], B6 displayed a Kd of 0.273 nM, a koff of 0.000121 s⁻¹, a kon of 443000 M⁻¹ s⁻¹ and a t1/2 of 95 min. For the same molecule, in the assay with MERS RBD-hFc [2], the Kd turned out to be 0.645 nM, the koff was determined as 0.000323 s⁻¹, the kon came to 501000 M⁻¹ s⁻¹ and the t1/2 amounted to 36 min.

B7: H1H15215P (antibody, V domains shown)
VH: EVQLVESGGGLVQPGGSLRLSCAASGFTFSTYGMSWVRQAPGKGLEWVSTIIGSGYNTYYSDSVKGRFTMSRDNSKSTLYLQMNSLRAEDTAVYYCTKEGPIIGTTNWGQGTLVTVSS
VL: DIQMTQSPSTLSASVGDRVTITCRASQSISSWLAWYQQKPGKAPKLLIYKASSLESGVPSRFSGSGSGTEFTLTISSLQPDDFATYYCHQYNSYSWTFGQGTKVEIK
In the assay with MERS RBD-hFc [1], B7 yielded a Kd of 0.671 nM, a koff of 9.67e-05 s⁻¹, a kon of 144000 M⁻¹ s⁻¹ and a t1/2 of 119 min. In the assay with MERS RBD-hFc [2], this molecule came in with a Kd of 1.68 nM, a koff of 0.000233 s⁻¹, a kon of 138000 M⁻¹ s⁻¹ and a t1/2 of 50 min.

B8: H1H15188P (antibody, V domains shown)
VH: QVQLVQSGAEVKKPGSSVKVSCKASGGSFSVYAISWVRQAPGQGLEWMGGIIPIFGTANYAQKFQDRFTITTDESTSTAYMELSSLRSEDTAMYYCAREGDIVVLPAGKGGMDVWGQGTTVTVSS
VL: DIVMTQSPLSLPVTPGEPASISCRSSQSLLHGNGYNYLDWYLQKPGQSPQLLIYLVSHRASGVPDRFSGSGSGTDFTLKISRVEAEDVGVYYCMQALQSPWTFGQGTKVEIK
As for B8, in the assay with MERS RBD-hFc [1], the Kd was found to be 0.0825 nM, the koff was found to be 0.000122 s⁻¹, the kon worked out at 1.48e+06 M⁻¹ s⁻¹ and the t1/2 was determined as 95 min. In the assay with MERS RBD-hFc [2], this molecule displayed a Kd of 0.167 nM, a koff of 0.000265 s⁻¹, a kon of 1.59e+06 M⁻¹ s⁻¹ and a t1/2 of 44 min.

B9: H1H15249P2 (antibody, V domains shown)
VH: QLQLQESGPGLVKPSETLSLTCTVSGGSISNNNYYWGWIRQPPGKGLDWIGSIYYSGNTYYNPSLKSRVTISVDTSKNQFSLKMSSVTATDTALYYCARQGADHNWVDPWGQGTLVTVSS
VL: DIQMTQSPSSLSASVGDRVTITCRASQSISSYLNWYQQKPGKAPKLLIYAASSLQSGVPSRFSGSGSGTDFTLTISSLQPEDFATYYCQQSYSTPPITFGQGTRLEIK
In the assay with MERS RBD-hFc [1], B9 had a Kd of 0.227 nM, an off-rate constant (koff) of 7.91e-05 s⁻¹, a kon of 349000 M⁻¹ s⁻¹ and a t1/2 of 146 min. Also, in the assay with MERS RBD-hFc [2], the dissociation constant Kd worked out at 0.288 nM, the koff is 0.000127 s⁻¹, the kon came to 442000 M⁻¹ s⁻¹ and the t1/2 came to 91 min.

B10: H1H15253P2 (antibody, V domains shown)
VH: EVQLVESGGGLVQPGGSLRLSCVVSGFTSRNYAMSWVRQAPGKGLEWVSAISGSGGSTYYADSVKGRFTISRDNPKNTLYLQMNSLRAEDTALYYCAEDPGTSFDYWGQGTLVTVSS
VL: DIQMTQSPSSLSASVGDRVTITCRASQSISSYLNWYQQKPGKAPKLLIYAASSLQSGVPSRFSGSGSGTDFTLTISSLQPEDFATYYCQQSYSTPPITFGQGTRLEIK
In the assay with MERS RBD-hFc [1], B10 showed a Kd of 0.348 nM, a koff of 0.000124 s⁻¹, a kon of 356000 M⁻¹ s⁻¹ and a t1/2 of 93 min. In the assay with MERS RBD-hFc [2], this molecule returned a Kd of 1.44 nM, a koff of 0.000629 s⁻¹, a kon of 436000 M⁻¹ s⁻¹ and a t1/2 of 18 min.

B11: H2aM15278N (antibody, V domains shown)
VH: QVQLVQSGAEVKKPGASVKVSCKASGYTFTSHGISWVRQAPGQGFEWMGWIGTYNSNTDYAQNFQGRVTMTTDTSTSTAYMELRNLRSDDTAVYYCARERGPYYGMDVWGQGTTVTVSS
VL: EIVLAQSPGTLSLSPGERATLSCRASQSVNSNYLAWYQQKPGQAPRLLIYGASSRATGIPDRFSGSGSGTDFTLTISRLEPEDFAVYYCQQYGNSLTFGPGTKVDFK
In the case of B11, in the assay with MERS RBD-hFc [1], binding was characterised by a dissociation constant (Kd) of 0.506 nM, the koff amounted to 0.000873 s⁻¹, the kon turned out to be 1.72e+06 M⁻¹ s⁻¹ and the t1/2 turned out to be 13 min. Moreover, in the assay with MERS RBD-hFc [2], the Kd was determined as 0.519 nM, the koff turned out to be 0.00113 s⁻¹, the kon was 2.17e+06 M⁻¹ s⁻¹ and the t1/2 came out at 10 min. The “ELISA Binding” value with MERS RBD-hFc [3] worked out at 2.42. Further, in the assay with MERS RBD-hFc [4], the Kd came to 2.05 nM and the t½ came out at 13.5 min.

B12: H1H15177P (antibody, V domains shown)
VH: EVQLVESGGGLVQPGGSLRLSCSASGFTFSSYDMSWVRQAPGKGLEWVSAIRGSGHTTYYADSVKGRFTISRDNSKNTLYLEMNSLRAEDTAVYYCVKDGSIVGFDPWGQGTLVTVSS
VL: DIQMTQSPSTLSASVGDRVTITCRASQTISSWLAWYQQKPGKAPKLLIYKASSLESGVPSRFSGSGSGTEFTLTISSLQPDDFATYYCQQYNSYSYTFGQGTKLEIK
As for B12, in the assay with MERS RBD-hFc [1], the Kd is 0.39 nM, the koff was determined as 0.000192 s⁻¹, the kon came to 493000 M⁻¹ s⁻¹ and the t1/2 came out at 60 min. Besides, in the assay with MERS RBD-hFc [2], the Kd was 1.23 nM, the koff amounted to 0.000701 s⁻¹, the kon is 568000 M⁻¹ s⁻¹ and the t1/2 was found to be 16 min.

B13: H1M15277N (antibody, V domains shown)
V domain 1: EVQLLESGGGLVQPGGSLRLSCAASGFTFSSYAMSWVRQAPGKGLEWVSAISGRGGNTYYADSVKGRFTISRDNSKNTLFLQMNTLRAEDTAVYYCAKDRGFGFFDIWGRGTLATVSS
V domain 2: not shown
As to B13, in the assay with MERS RBD-hFc [1], the equilibrium dissociation constant (Kd) is 0.346 nM, the koff turned out to be 0.00091 s⁻¹, the on-rate (kon) turned out to be 2.63e+06 M⁻¹ s⁻¹ and the t1/2 was 13 min. In the assay with MERS RBD-hFc [2], this molecule displayed a Kd of 0.671 nM, a koff of 0.00218 s⁻¹, a kon of 3.24e+06 M⁻¹ s⁻¹ and a t1/2 of 5 min. In the assay with MERS RBD-hFc [3], the “ELISA Binding” value came out at 2.68. Moreover, in the assay with MERS RBD-hFc [4], binding was put at a Kd of 1.72 nM and the t½ was determined as 11.1 min.

B14: H1H15228P2 (antibody, V domains shown)
VH: EVQLVESGGGLVQPGGSLRLSCAVFGFTFSGYAMSWVRQAPGKGLEWVSAISGGGGSTYYTDSVKGRFTISRDNSKNTLYLQMNSLRAEDTAVYYCASYWNNGMDVWGQGTTVTVSS
VL: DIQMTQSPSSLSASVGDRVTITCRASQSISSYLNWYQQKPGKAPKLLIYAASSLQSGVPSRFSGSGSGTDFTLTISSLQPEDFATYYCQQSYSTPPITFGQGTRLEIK
For the molecule B14, in the assay with MERS RBD-hFc [1], binding was characterised by a dissociation constant (Kd) of 0.418 nM, the koff came to 0.000185 s⁻¹, the kon was 443000 M⁻¹ s⁻¹ and the t1/2 was 63 min. In the assay with MERS RBD-hFc [2], this molecule displayed a Kd of 0.975 nM, an off-rate (koff) of 0.000464 s⁻¹, a kon of 476000 M⁻¹ s⁻¹ and a t1/2 of 25 min.

B15: H1H15231P2 (antibody, V domains shown)
VH: QLQLQESGPGLVKPSETLSLTCTVSGGSISSNTYYWGWIRQPPGKGLEWIGTIYYTGNTYYKSSLKSRVTISVDTSRNQFSLKLTSVTAADTAVYYCARQFADLNYVDYWGQGTLVTVSS
VL: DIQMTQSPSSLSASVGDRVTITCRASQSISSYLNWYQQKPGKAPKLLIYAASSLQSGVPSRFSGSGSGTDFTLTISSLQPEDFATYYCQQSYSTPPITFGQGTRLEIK
Take B15: in the assay with MERS RBD-hFc [1], the affinity, expressed as Kd, was 0.116 nM; the koff came out at 7.44e-05 s⁻¹; the kon came to 639000 M⁻¹ s⁻¹; the t1/2 was 155 min. In addition, in the assay with MERS RBD-hFc [2], the dissociation constant (Kd) was 0.139 nM, the koff stood at 9.19e-05 s⁻¹, the kon stood at 659000 M⁻¹ s⁻¹ and the t1/2 is 126 min.
